These results are taken from article PMC5680806 (mAbs, 2017).

To fix the notation:
B1: SJL-564-1 (antibody, V domains shown)
VH: QAYLQQSGAELARPGASVKLSCKASGYTFTSYGISWVKQRTGQGLEWIGEIYPRSGNTYYNEKFKGKATLTADKSSSTAYMELRSLTSEDSAVYFCARSTYSNYVYAMDYWGQGTSVTVSS
VL: DVVLTQTPLSLPVSLGDQASISCRSSQSIVHSNGNTYLEWYLQKPGQSPKLLIYKVSNRFSGVPDRFSGSGSGTDFTLKISRVEAEDLGVYYCFQGSHVPYTFGGGTKLEIK
B2: SJL-565-1 (antibody, V domains shown)
VH: QAYLQQSGPELVKPGASVKISCKASGYTFTDYYINWVKQRPGQGLEWIGWIYPGSGNTKYNEKFKGKATLTVDTSSSTAYMQLSSLTSEDSAVYFCARSVYDYDEDWGQGTRVTVSA
VL: DIVMTQSQKFMSTSVGDRVSVTCKASQNVGTNVAWYQQKPGQSPKALIYSASYRYSGVPDRFTGSGSGTDFTLTISNVQSEDLAEYFCQQYNSYPFTFGSGTKLEIK
B3: SJL-565-3 (antibody, V domains shown)
VH: QAYLQQSGPELVKPGASVKISCKASGYTFTDYYINWVKQRPGQGLEWIGWIYPGSGNTKYNEKFKGKATLTVDTSSSTAYMHVSSLTSEDSAVYFCSSSRYDYDEDWGQGTLVTVSA
VL: DIVMTQSQKFMSTSVGDRVSVTCKASQNVGTNVAWYQQKPGQSPKALIYSASYRYSGVPDRFTGSGSGTDFTLTISNVQSEDLAEYFCQQYNSYPFTFGSGTKLEIK
B4: Balb-1 (antibody, V domains shown)
VH: QAYLQQSGPELKKPGETVKISCKASGYTFTNYGMNWVKQAPGKGLKWMGWINTNTGEPTYAEEFKGRFAFSLETSASTAYLQINNLKNEDTATYFCASNYYWYFDVWGAGTTVTVSS
VL: DVVLTQSPATLSVTPGDSVSLSCRASQSISNNLHWYQQKSHESPRLLIKYASQSISGIPSRFSGSGSGTDFTLSINSVETEDFGMYFCQQSNSWPLTFGAGTKLELK

This assay deals with recombinant programmed cell death protein 1 (PD-1) (Homo sapiens, UniProt Q15116).
recombinant programmed cell death protein 1 (PD-1), sequence (Q15116 25-170): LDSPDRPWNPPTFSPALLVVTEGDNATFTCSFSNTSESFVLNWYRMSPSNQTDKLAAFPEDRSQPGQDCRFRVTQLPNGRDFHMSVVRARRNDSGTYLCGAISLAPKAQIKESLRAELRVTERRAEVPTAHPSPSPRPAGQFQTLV
Regarding B1, the binding result is recorded as “binds”.

In the case of B2, the binding result is “binds”. For B3 the value was “binds”; for B4, “binds”.
